Measured values reported in US20230106247A1 (L AND L BIO CO LTD NINGBO CHINA, published 2023).

Experiments:
human Sirpα-V2-his [1] = biological target: human Sirpα-V2-his (human); assay: ELISA EC50 against Ref2
Method: (§1) Different antigens (recombinant proteins) such as the human Sirpα-V1-hFc, Sirpα-V1-his, Sirpα-V2-his, Sirpβ-his, Sirpγ-his, monkey Sirpα-his (cynoSirpα-his) or NOD-mSirpα-his described in Example 1 were diluted with a PBS buffer at pH7.4 to concentrations of 1 μg/mL, 2 μg/mL or 5 μg/mL, added into a 96-well ELISA plate (Corning, CLS3590-100EA) at a volume of 50 μL/well, and placed in an incubator at 37° C. for 2 hours. After the liquid was discarded, the wells were added with a blocking solution of 5% skimmed milk (skimmed milk powder available from Bright Dairy) diluted with PBS at 230 μL/well, and incubated in an incubator at 37° C. for 3 hours, or placed overnight at 4° C. (for 16-18 hours) for blocking. […] The plated was washed with PBST for 5 times, then added with 50 μL/well of TMB chromogenic substrate (KPL, Cat #: 52-00-03), incubated at room temperature for 10-15 min, added with 50 μL/well of 1 M H₂SO₄ to stop the reaction, and read by a […] Go microplate reader (ThermoFisher, Cat #: 51119200) for the absorbance value at 450 nm, and then a clone with high binding activity was selected or a EC₅₀ value was calculated according to the OD value.

human Sirpα-V1-his [2] = biological target: T1, human Sirpα-V1-his (human, UniProt P78324 31-373); assay: ELISA EC50 against Ref2
T1 construct: range 31-373; Bought (Sino Biological 11612-H08H) or expressed in-house; also called hSirpα-V1; hSirpα-V1-his
Method: as §1

human Sirpα-V1-his [3] = biological target: T1, human Sirpα-V1-his; assay: ELISA
Method: The self-expressed human PD-1, Sirpα and the like antigens of the present disclosure were diluted with a PBS buffer at pH7.4 to a concentration of 2 μg/mL according to different assays, and then added into a 96-well ELISA plate (Corning, CLS3590-100EA) at a volume of 50 μL/well, and placed in an incubator at 37° C. for 2 hours. After the liquid was discarded, the wells were added with a blocking solution of 5% skimmed milk (Sangon Biotech (Shanghai) Co., Ltd., A600669-0250) diluted with PBS at 200 μL/well, and incubated in an incubator at 37° C. for 3 hours, or placed overnight at 4° C. (for 16-18 hours) for blocking. The blocking solution was discarded, and the plate was washed with a PBST buffer (pH7.4 PBS containing 0.05% tween-20) for 5 times, then added with 50 μL/well of 5-fold serial dilution of the antibody to be tested in 1% BSA, and incubated at 37° C. for 1 hour. […] The plated was washed with PBST for 5 times, then added with 50 μL/well of TMB chromogenic substrate (KPL, 52-00-03), incubated at room temperature for 5-10 min, added with 50 μL/well of 1 M H₂SO₄ to stop the reaction, and read by a […] Go microplate reader (ThermoFisher, 51119200) for the absorbance value at 450 nm, and then EC₅₀ was calculated according to the OD value.
The aforementioned bispecific antibodies were cloned, expressed and purified according to the cloning, expression and purification methods of Example 1 of the present disclosure.

human Sirpα-V1-his [4] = biological target: T1, human Sirpα-V1-his; assay: blocking ELISA, competitor CD47-hFc
Method: The antigens PD-1 and Sirpα expressed according to the method of Example 1 were diluted with a PBS buffer at pH7.4 to a concentration of 2 μg/mL, added into a 96-well ELISA plate (Corning, CLS3590-100EA) at a volume of 50 μL/well, and incubated at 37° C. for 2 hours. After the liquid was discarded, the wells were added with a blocking solution of 5% skimmed milk (Sangon Biotech (Shanghai) Co., Ltd., A600669-0250) formulated with PBS at 200 μL/well, and incubated at 37° C. for 3 hours for blocking. […] The plate was washed with PBST for 5 times, added with 50 μL/well of HRP-labeled secondary antibody (GenScript Biotechnology Co., Ltd., M00091) diluted at 1:1000, and incubated at 37° C. for 1 hour. The plated was washed with PBST for 5 times, then added with 50 μl/well of TMB chromogenic substrate (KPL, 52-00-03), incubated at room temperature for 5-10 min, added with 50 μl/well of 1 M H₂SO₄ to stop the reaction, and read by a […] Go microplate reader (ThermoFisher, 51119200) for the absorbance value at 450 nm, and then IC₅₀ was calculated according to the OD value.

[5] = biological target: T2, human T cells (expressing Sirpγ) (human, UniProt Q9P1W8 29-387); assay: flow cytometry on PBMC
T2 construct: whole, on cells; The target as printed is the cell; also called human PBMCs (T cells)
T2 sequence (Q9P1W8 29-387): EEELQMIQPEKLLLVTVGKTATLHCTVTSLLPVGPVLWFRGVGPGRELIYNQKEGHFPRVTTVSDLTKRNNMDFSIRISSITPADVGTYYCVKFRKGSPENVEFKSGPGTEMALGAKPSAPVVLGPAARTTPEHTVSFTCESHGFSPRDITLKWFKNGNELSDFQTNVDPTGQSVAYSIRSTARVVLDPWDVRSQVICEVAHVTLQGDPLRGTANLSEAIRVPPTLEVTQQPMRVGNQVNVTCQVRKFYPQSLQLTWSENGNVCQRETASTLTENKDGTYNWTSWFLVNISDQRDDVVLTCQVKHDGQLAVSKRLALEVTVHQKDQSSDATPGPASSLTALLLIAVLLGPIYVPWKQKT
Method: The cryopreserved PBMC cells were taken, thawed at 37° C., then added into 3 mL of a FACS buffer (1×PBS+2% FBS), and centrifuged at 1,000 rpm for 5 min, the supernatant was discarded, the cells were resuspended in the FACS buffer for counting, and the density was adjusted to 1×10⁶ cells/mL. PBMCs were added into a U-shaped 96-well plate at 100 μL cells/well, and added with the antibody to be detected so that the final concentrations thereof are 10 μg/mL, 1 μg/mL and 0 μg/mL respectively. They were mixed uniformly, then incubated at room temperature for 20 min, and centrifuged at 2,000 rpm for 5 min. The supernatant was discarded, and the cell pellet was resuspended by adding 100 μL of the FACS buffer, and centrifuged at 2,000 rpm for 5 min. […] The mixture was centrifuged at 2,000 rpm for 5 min. The supernatant was discarded, and the cell pellet was washed once with 100 μL of the FACS buffer, resuspended with 100 μL of the FACS buffer, and read by a flow cytometer (Novosampler™ pro, model: NS200). The assay data was processed with NovoExpress. Taking the sample well with the antibody concentration of 0 μg/mL as the negative control, based on this, the proportion of T cells specifically bound with the antibody to be tested was calculated.

human Sirpα-V2-his [6] = biological target: human Sirpα-V2-his (human); assay: blocking ELISA, competitor CD47-hFc
Method: Specifically, the recombinant protein of human Sirpα-V2-his was diluted to a concentration of 2 μg/mL with a PBS buffer at pH7.4, then added into a 96-well ELISA plate (Corning, CLS3590-100EA) at a volume of 50 μL/well, and placed in an incubator at 37° C. for 2 hours. After the liquid was discarded, the wells were added with a blocking solution of 5% skimmed milk (skimmed milk powder available from Bright Dairy) diluted with PBS at 230 μL/well, and incubated in an incubator at 37° C. for 3 hours, or placed overnight at 4° C. (for 16-18 hours) for blocking. […] The plate was washed for 5 times, added with 50 μL/well of a streptavidin-HRP secondary antibody (GenScript, M00091) diluted at 1:1000, incubated at 37° C. for 1 hour, and then washed with PBST for 5 times. Each well was added with 50 μL TMB (Surmodic, Cat #TTMB-1000-01) for color development, and added with 50 μL/well of 1 M H₂SO₄ to stop the reaction. The readings on a microplate reader (MultiskanGO Thermo, Model: 51119200) were subjected to data analysis by GraphPad prism 5.

human Sirpα-V2-his (human), sequence (chain, as listed by the source): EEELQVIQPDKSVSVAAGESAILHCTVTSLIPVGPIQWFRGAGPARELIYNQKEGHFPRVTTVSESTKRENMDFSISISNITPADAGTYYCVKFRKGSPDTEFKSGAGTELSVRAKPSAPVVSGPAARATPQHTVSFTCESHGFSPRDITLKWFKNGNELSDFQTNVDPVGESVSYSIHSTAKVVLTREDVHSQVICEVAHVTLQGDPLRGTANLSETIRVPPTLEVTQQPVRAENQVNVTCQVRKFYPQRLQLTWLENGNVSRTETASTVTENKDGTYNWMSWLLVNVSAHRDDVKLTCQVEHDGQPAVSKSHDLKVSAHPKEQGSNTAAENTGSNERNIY

fold stronger binding than Ref2 (human Sirpα-V2-his [1]): 2.9 fold
fold stronger binding than Ref2 (human Sirpα-V1-his [2]): 1.4 fold
EC50 (human Sirpα-V1-his [3]): 0.077 nM
IC50 (human Sirpα-V1-his [4]): 6.14 nM
IC50 (human Sirpα-V2-his [6]): 6.29 nM
B1: humanized antibody mab14-h16 (antibody, human IgG4 S228P, kappa, V domains shown)
VH: QVQLVQSGAEVKKPGASVKVSCKASGYNFNIYWINWVRQAPGQGLEWIGNIYPSSISTNYNEKFKTRATLTVDKSTSTVYMELSSLRSEDTAVYYCARSEGTYYGGRYEGDWFGYWGQGTLVTVSS
VL: DIQMTQSPSSLSASVGDRVTITCRASQDIRNYLNWYQQKPGKAPKLLIYFTSTLHSGVPSRFSGSGSGTDFTLTISSLQPEDFATYYCQQGNTLPWTFGGGTKVEIKR
notes: hIgG4, κ
binding result [5]: no binding (tested: negative control 1.67%)
